What was measured:
Test in all cases: ITC
[1] = target: T1, AnkB R6-24 (Homo sapiens)
T1 chain: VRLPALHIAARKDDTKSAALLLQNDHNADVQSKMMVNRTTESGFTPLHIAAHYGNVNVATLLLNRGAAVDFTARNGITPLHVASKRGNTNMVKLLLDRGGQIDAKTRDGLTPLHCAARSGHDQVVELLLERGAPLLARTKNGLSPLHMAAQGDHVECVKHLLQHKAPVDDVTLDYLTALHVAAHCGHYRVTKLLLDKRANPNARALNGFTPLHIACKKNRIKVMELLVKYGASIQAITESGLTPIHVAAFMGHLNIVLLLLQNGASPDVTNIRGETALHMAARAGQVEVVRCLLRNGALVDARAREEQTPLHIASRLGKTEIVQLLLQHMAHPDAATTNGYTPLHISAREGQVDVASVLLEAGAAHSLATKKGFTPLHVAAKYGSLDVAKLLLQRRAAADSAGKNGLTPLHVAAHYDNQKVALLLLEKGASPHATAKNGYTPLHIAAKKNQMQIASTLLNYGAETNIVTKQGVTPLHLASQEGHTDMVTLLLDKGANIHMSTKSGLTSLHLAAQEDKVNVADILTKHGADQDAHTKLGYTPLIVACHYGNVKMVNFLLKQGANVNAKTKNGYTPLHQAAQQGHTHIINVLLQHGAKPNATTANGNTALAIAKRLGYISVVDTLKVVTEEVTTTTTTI

[2] = target: T2, AnkB R1-14 (Homo sapiens)
T2 chain: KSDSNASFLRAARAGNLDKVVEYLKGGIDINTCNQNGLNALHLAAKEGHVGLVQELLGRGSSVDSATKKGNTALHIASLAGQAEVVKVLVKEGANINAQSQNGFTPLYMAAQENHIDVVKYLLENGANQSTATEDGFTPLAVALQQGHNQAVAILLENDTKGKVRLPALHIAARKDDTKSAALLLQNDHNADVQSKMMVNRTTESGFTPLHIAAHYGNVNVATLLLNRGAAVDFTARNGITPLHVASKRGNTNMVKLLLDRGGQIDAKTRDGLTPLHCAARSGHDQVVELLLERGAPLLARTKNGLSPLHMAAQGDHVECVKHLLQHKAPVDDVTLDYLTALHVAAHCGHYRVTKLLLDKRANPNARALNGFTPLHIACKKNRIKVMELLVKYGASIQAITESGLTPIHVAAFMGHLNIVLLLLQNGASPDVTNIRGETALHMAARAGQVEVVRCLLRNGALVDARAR

[3] = target: T3, AnkB 28–873 (MBD + full AI-c) (human, UniProt Q01484-2 28-873)
T3 chain: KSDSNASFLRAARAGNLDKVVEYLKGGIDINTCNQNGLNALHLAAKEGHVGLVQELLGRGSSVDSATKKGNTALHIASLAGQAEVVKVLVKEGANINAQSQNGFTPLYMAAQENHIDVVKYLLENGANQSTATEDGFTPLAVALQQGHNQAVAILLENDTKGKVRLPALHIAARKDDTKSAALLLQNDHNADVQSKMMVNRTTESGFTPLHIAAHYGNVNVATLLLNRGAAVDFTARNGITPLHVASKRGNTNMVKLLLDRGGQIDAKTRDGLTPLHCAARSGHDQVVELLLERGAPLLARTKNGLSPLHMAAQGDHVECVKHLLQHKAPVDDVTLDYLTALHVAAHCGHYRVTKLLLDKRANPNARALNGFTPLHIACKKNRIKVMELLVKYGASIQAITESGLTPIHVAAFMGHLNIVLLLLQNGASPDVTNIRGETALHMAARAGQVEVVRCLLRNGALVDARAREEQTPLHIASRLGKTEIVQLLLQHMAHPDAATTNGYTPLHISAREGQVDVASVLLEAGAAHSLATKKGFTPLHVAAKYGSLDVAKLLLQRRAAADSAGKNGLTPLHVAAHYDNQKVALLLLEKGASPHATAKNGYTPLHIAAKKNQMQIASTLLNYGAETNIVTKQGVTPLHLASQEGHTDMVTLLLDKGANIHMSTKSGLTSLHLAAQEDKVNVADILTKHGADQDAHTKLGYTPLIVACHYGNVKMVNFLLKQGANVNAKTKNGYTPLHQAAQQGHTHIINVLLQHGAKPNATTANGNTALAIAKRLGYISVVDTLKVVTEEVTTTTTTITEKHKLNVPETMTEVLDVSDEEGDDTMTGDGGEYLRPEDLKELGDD

Kd [1]: 4.7 µM
Kd [2]: 4.1 µM
Kd [3]: 2.2 µM
B1: AnkB entire linker (aa 828–965) (domain or fragment)
chain: TEKHKLNVPETMTEVLDVSDEEGDDTMTGDGGEYLRPEDLKELGDDSLPSSQFLDGMNYLRYSLEGGRSDSLRSFSSDRSHTLSHASYLRDSAVMDDSVVIPSHQVSTLAKEAERNSYRLSWGTENLDNVALSSSPIH
